molecular target: T1, MHC class I allele A*0101 (bound via biotin to streptavidin-coated plate); experiment: iTopia peptide binding assay
T1 construct: iTopia MHC class I monomer on the plate; placeholder peptide and b2M removed, then reconstituted with test peptide and fresh b2M; also called A1; HLA A1
Protocol: (§1) The 9 mers were tested for Peptide Binding, Off Rate and Affinity using iTopia Epitope Discovery System in accordance with the manufacturer's instructions. Briefly, 96 well microtitre plates coated with MHC molecules representing different MHC alleles are used to identify candidate peptides. […] Determinations are performed in duplicate using an ELISA plate reader and included allele specific positive controls.
(§2) i) Peptide Binding—This assay measures the ability of individual peptides to bind to the MHC molecules under standardized optimal binding conditions. The assay is performed for all the test peptides across the selected MHC alleles. The test peptides identified as “binders” are characterized further in terms of affinity and dissociation experiments.

TDLPAYVRN (also called Peptide No 44) [5T4 9 mer peptide 44 TDLPAYVRN] was tested. Which “% of positive control peptide binding” value did it give?
The value was 7%.

VKCVNRNLT (also called Peptide No 38) [5T4 9 mer peptide 38 VKCVNRNLT] was tested. Which “% of positive control peptide binding” value did it give?
The value was 6%.

Which “% of positive control peptide binding” value does the source give for LCECSEAAR (also called Peptide No 33) [5T4 9 mer peptide 33 LCECSEAAR] here?
Its value is 3%.

How did the “% of positive control peptide binding” value turn out when PDQCPALCE (also called Peptide No 30) [5T4 9 mer peptide 30 PDQCPALCE] was run?
The value was 5%.

QPPLPDQCP (also called Peptide No 28) [5T4 9 mer peptide 28 QPPLPDQCP] was tested. Which “% of positive control peptide binding” value did it give?
Its value is 6%.

Which “% of positive control peptide binding” value does the source give for LPAYVRNLF (also called Peptide No 45) [5T4 9 mer peptide 45 LPAYVRNLF] here?
Its value is 7%.

molecular target: T2, MHC class I allele A*0201 (bound via biotin to streptavidin-coated plate); experiment: iTopia peptide binding assay
T2 construct: iTopia MHC class I monomer on the plate; placeholder peptide and b2M removed, then reconstituted with test peptide and fresh b2M; also called A2; HLA A2
Protocol: as §1, §2

For TDLPAYVRN (also called Peptide No 44) [5T4 9 mer peptide 44 TDLPAYVRN], which “% of positive control peptide binding” value is on record?
The value was 3%.

Which “% of positive control peptide binding” value does the source give for VKCVNRNLT (also called Peptide No 38) [5T4 9 mer peptide 38 VKCVNRNLT] here?
The value was 3%.

For LCECSEAAR (also called Peptide No 33) [5T4 9 mer peptide 33 LCECSEAAR], which “% of positive control peptide binding” value is on record?
The value was 6%.

For PDQCPALCE (also called Peptide No 30) [5T4 9 mer peptide 30 PDQCPALCE], which “% of positive control peptide binding” value is on record?
Its value is 3%.

With QPPLPDQCP (also called Peptide No 28) [5T4 9 mer peptide 28 QPPLPDQCP] as the binder, how does the “% of positive control peptide binding” value read?
The value was 5%.

For LPAYVRNLF (also called Peptide No 45) [5T4 9 mer peptide 45 LPAYVRNLF], which “% of positive control peptide binding” value is on record?
The value was 14%.

molecular target: T3, MHC class I allele A*0301 (bound via biotin to streptavidin-coated plate); experiment: iTopia peptide binding assay
T3 construct: iTopia MHC class I monomer on the plate; placeholder peptide and b2M removed, then reconstituted with test peptide and fresh b2M; also called A3; HLA A3
Protocol: as §1, §2

TDLPAYVRN (also called Peptide No 44) [5T4 9 mer peptide 44 TDLPAYVRN] was tested. Which “% of positive control peptide binding” value did it give?
The value was 1%.

VKCVNRNLT (also called Peptide No 38) [5T4 9 mer peptide 38 VKCVNRNLT] was tested. Which “% of positive control peptide binding” value did it give?
The value was 0%.

Which “% of positive control peptide binding” value does the source give for LCECSEAAR (also called Peptide No 33) [5T4 9 mer peptide 33 LCECSEAAR] here?
Its value is 0%.

For PDQCPALCE (also called Peptide No 30) [5T4 9 mer peptide 30 PDQCPALCE], which “% of positive control peptide binding” value is on record?
Its value is 0%.

For QPPLPDQCP (also called Peptide No 28) [5T4 9 mer peptide 28 QPPLPDQCP], which “% of positive control peptide binding” value is on record?
Its value is 1%.

For LPAYVRNLF (also called Peptide No 45) [5T4 9 mer peptide 45 LPAYVRNLF], which “% of positive control peptide binding” value is on record?
The value was 2%.

molecular target: T4, MHC class I allele B*0702 (bound via biotin to streptavidin-coated plate); experiment: iTopia peptide binding assay
T4 construct: iTopia MHC class I monomer on the plate; placeholder peptide and b2M removed, then reconstituted with test peptide and fresh b2M; also called B7; HLA B7
Protocol: as §1, §2

With TDLPAYVRN (also called Peptide No 44) [5T4 9 mer peptide 44 TDLPAYVRN] as the binder, how does the “% of positive control peptide binding” value read?
The value was 2%.

How did the “% of positive control peptide binding” value turn out when VKCVNRNLT (also called Peptide No 38) [5T4 9 mer peptide 38 VKCVNRNLT] was run?
The value was 2%.

LCECSEAAR (also called Peptide No 33) [5T4 9 mer peptide 33 LCECSEAAR] was tested. Which “% of positive control peptide binding” value did it give?
Its value is 0%.

PDQCPALCE (also called Peptide No 30) [5T4 9 mer peptide 30 PDQCPALCE] was tested. Which “% of positive control peptide binding” value did it give?
The value was 1%.

Which “% of positive control peptide binding” value does the source give for QPPLPDQCP (also called Peptide No 28) [5T4 9 mer peptide 28 QPPLPDQCP] here?
The value was 3%.

With LPAYVRNLF (also called Peptide No 45) [5T4 9 mer peptide 45 LPAYVRNLF] as the binder, how does the “% of positive control peptide binding” value read?
Its value is 90%.

molecular target: T5, MHC class I allele A*0101 monomer (human, biotinylated, bound to streptavidin-coated plate); experiment: iTopia, multiparametric iScore
T5 construct: placeholder peptide and b2M removed, then reconstituted with test peptide and fresh b2M; also called A1; HLA-A1
Protocol: as §1
(§3) Finally, multiparametric analysis is performed on the results from these assays and an iScore is generated. The iScore represents a measure of the overall quality of peptide-MHC binding, enabling candidate peptides to be ranked in order of binding quality and allowing rational prioritisation of peptides for functional cellular follow-up studies.

INADPRLTN [5T4 9-mer peptide 203] was tested. Which iScore did it give?
The iScore was 0.

With ACRDHMEGY [5T4 9-mer peptide 196] as the binder, how does the iScore read?
The iScore was 0.

PRLTNLSSN [5T4 9-mer peptide 205] was tested. Which iScore did it give?
Its iScore is 0.

ADPRLTNLS [5T4 9-mer peptide 204] was tested. Which iScore did it give?
Its iScore is 0.

With YRYEINADP [5T4 9-mer peptide 201] as the binder, how does the iScore read?
Its iScore is 0.

EGYHYRYEI [5T4 9-mer peptide 199] was tested. Which iScore did it give?
The iScore was 0.

With RDHMEGYHY [5T4 9-mer peptide 197] as the binder, how does the iScore read?
The iScore was 0.

How did the iScore turn out when YHYRYEINA [5T4 9-mer peptide 200] was run?
Its iScore is 0.

With LTNLSSNSD [5T4 9-mer peptide 206] as the binder, how does the iScore read?
Its iScore is 0.

With YEINADPRL [5T4 9-mer peptide 202] as the binder, how does the iScore read?
The iScore was 0.

molecular target: T6, MHC class I allele A*0201 monomer (human, biotinylated, bound to streptavidin-coated plate); experiment: iTopia, multiparametric iScore
T6 construct: also called A2; HLA-A2
Protocol: as §1, §3

For INADPRLTN [5T4 9-mer peptide 203], which iScore is on record?
The iScore was 0.

ACRDHMEGY [5T4 9-mer peptide 196] was tested. Which iScore did it give?
The iScore was 0.

PRLTNLSSN [5T4 9-mer peptide 205] was tested. Which iScore did it give?
Its iScore is 0.

Which iScore does the source give for ADPRLTNLS [5T4 9-mer peptide 204] here?
Its iScore is 0.

For YRYEINADP [5T4 9-mer peptide 201], which iScore is on record?
Its iScore is 0.

With EGYHYRYEI [5T4 9-mer peptide 199] as the binder, how does the iScore read?
Its iScore is 0.

RDHMEGYHY [5T4 9-mer peptide 197] was tested. Which iScore did it give?
The iScore was 0.

Which iScore does the source give for YHYRYEINA [5T4 9-mer peptide 200] here?
Its iScore is 0.

Which iScore does the source give for LTNLSSNSD [5T4 9-mer peptide 206] here?
The iScore was 0.027.

For YEINADPRL [5T4 9-mer peptide 202], which iScore is on record?
Its iScore is 0.077.

molecular target: T7, MHC class I allele A*0301 monomer (human, biotinylated, bound to streptavidin-coated plate); experiment: iTopia, multiparametric iScore
T7 construct: also called A3; HLA-A3
Protocol: as §1, §3

For INADPRLTN [5T4 9-mer peptide 203], which iScore is on record?
The iScore was 0.

For ACRDHMEGY [5T4 9-mer peptide 196], which iScore is on record?
Its iScore is 0.

How did the iScore turn out when PRLTNLSSN [5T4 9-mer peptide 205] was run?
The iScore was 0.

For ADPRLTNLS [5T4 9-mer peptide 204], which iScore is on record?
Its iScore is 0.

Which iScore does the source give for YRYEINADP [5T4 9-mer peptide 201] here?
The iScore was 0.

For EGYHYRYEI [5T4 9-mer peptide 199], which iScore is on record?
Its iScore is 0.

How did the iScore turn out when RDHMEGYHY [5T4 9-mer peptide 197] was run?
Its iScore is 0.

YHYRYEINA [5T4 9-mer peptide 200] was tested. Which iScore did it give?
The iScore was 0.

With LTNLSSNSD [5T4 9-mer peptide 206] as the binder, how does the iScore read?
Its iScore is 0.

For YEINADPRL [5T4 9-mer peptide 202], which iScore is on record?
Its iScore is 0.

molecular target: T8, MHC class I allele B*0702 monomer (human, biotinylated, bound to streptavidin-coated plate); experiment: iTopia, multiparametric iScore
T8 construct: also called B7; HLA-B7
Protocol: as §1, §3

How did the iScore turn out when INADPRLTN [5T4 9-mer peptide 203] was run?
The iScore was 0.

How did the iScore turn out when ACRDHMEGY [5T4 9-mer peptide 196] was run?
The iScore was 0.

How did the iScore turn out when PRLTNLSSN [5T4 9-mer peptide 205] was run?
Its iScore is 0.

ADPRLTNLS [5T4 9-mer peptide 204] was tested. Which iScore did it give?
The iScore was 0.094.

For YRYEINADP [5T4 9-mer peptide 201], which iScore is on record?
The iScore was 0.

Which iScore does the source give for EGYHYRYEI [5T4 9-mer peptide 199] here?
Its iScore is 0.

With RDHMEGYHY [5T4 9-mer peptide 197] as the binder, how does the iScore read?
Its iScore is 0.

With YHYRYEINA [5T4 9-mer peptide 200] as the binder, how does the iScore read?
The iScore was 0.

Which iScore does the source give for LTNLSSNSD [5T4 9-mer peptide 206] here?
Its iScore is 0.

Which iScore does the source give for YEINADPRL [5T4 9-mer peptide 202] here?
The iScore was 0.
